From publication PMC7256013, “Preclinical evaluation of cationic DOTA-triarginine-lipid conjugates for theranostic liquid brachytherapy” (Nanotheranostics, 2020)
Residues, ends and D or L forms follow the SMILES beside them. *: point of attachment. DOTA = O=C(O)CN1CCN(CC(=O)O)CCN(CC(=O)*)CCN(CC(=O)O)CC1; Stearoyl = CCCCCCCCCCCCCCCCCC(=O)*

Experiments:
in vivo [1] = conditions: female, Balb/C, mouse, total radioactivity
Procedure: (§1) Mice were injected intratumorally with ^64Cu-compounds in concentrations of 40 MBq/mL. During the scan procedures, mice were anaesthetized using 3-4 % sevoflurane (Abbott Scandinavia AB, Sweden) mixed with 35% O2 and 65% medical grade air and placed on heating pads. Two mice were positioned side-by-side, separated by a 6 mm polystyrene block for PET/CT imaging using Inveon® small animal PET/CT system with CT based PET image attenuation (Siemens Medical Systems, Malvern, PA, USA). The protocol included a 12-minute PET scan, followed by a CT scan. Mice were fixed on a bed inside the scanner with the syringe placed and the needle fixed centrally in the tumor and ready for injection. Upon initiation of the first scan, intratumoral injections were done manually over 30 seconds, to investigate the initial dynamics of the tracer diffusion. Following this, two further scans were included; at six hours (5 minutes scan time) and 24 hours (12 minutes scan time) after injection. Reconstruction of the PET scans were performed using maximum a posteriori (MAP) reconstruction algorithm (voxel size: 0.815 x 0.815 x 0.796 mm; resolution (FWHM) 1.2 mm). The injection scan was reconstructed in 4 x 30 second and 10 x 60 second time frames to observe the dynamics of tracer diffusion. The two last time points were reconstructed in a single time frame.
(§2) Image analysis was performed using commercially available Inveon software (Siemens Medical Systems, Malvern, PA, USA). Regions of interest (ROIs) were manually drawn based on the co-registered PET/CT images. The following ROIs were constructed; tumors (complete volume delineated), liver, spleen, kidney, bladder, and blood. Blood activity was estimated from a constructed ROI covering the left ventricular lumen of the heart. ROIs in the left ventricle and abdominal aorta were subsequently segmented to only include the voxels displaying above 80% of maximum activity with the original ROI. From the obtained uptake values all data was calculated into %ID/g for each organ and as %ID in tumors by adjusting for CT based tumor volume. Furthermore, voxel values from tumor ROIs were used to generate histograms for substance diffusion over time in the tumor region.
(§3) Note that the first point in each plot represents the percentage of voxels with radioactivity concentrations lower than 1.6 %ID/g. These voxels are considered empty, meaning that the corresponding tumor region is non-radioactive.

in vivo [2] = conditions: female, Balb/C, mouse, total radioactivity; remark: listed apart in the source
Procedure: CT26 wildtype cells (murine colon carcinoma, ATCC, Virginia, US) were cultured RPMI (Roswell Park Memorial Institute) medium supplemented with 10 % heat-inactivated Fetal Calf Serum (FCS) and 1 % Penicillin-Streptomycin (Invitrogen, Carlsbad, CA., US) retained in 5 % CO2 incubator at 37 °C. Immunocompetent female Balb/C mice (Charles River, Wilmington, MA., USA) were inoculated with tumor cells after one week of adaptation. All 20 mice included were inoculated subcutaneously with 3 x 10^5 CT26 wildtype cells in 100 µL medium on the right flank and hereafter monitored for weight and tumor size continuously for study purposes and to monitor the health of the mice. Tumor sizes were calculated from the formula of 0.52 x lenght^2 x width, as measured by external caliper. Animals were included in the study when tumors were approximately 400 mm^3.
as §1, §2

[3] = mouse, in vivo
Procedure: as §1, §2, §3

Q: Which results are given for `CCCCCCCCCCCCCCCCCC(=O)N[C@@H](CCCNC(=N)N)C(=O)N[C@@H](CCCNC(=N)N)C(=O)N[C@@H](CCCNC(=N)N)C(=O)N[C@@H](CCCCNC(=O)CN1CCN(CC(=O)O)CCN(CC(=O)O)CCN(CC(=O)O)CC1)C(N)=O` [64Cu-D3R-C18, metal not drawn] (Stearoyl-RRRK(DOTA)-NH2)?
A: tissue uptake at 5 min (in vivo [1]): < 10 %ID/g; tissue uptake at 15 s (in vivo [2]): 80 ± 66 %ID/g; tissue uptake at 45 s (in vivo [2]): 171 ± 96 %ID/g; tissue uptake at 75 s (in vivo [2]): 230 ± 58 %ID/g; tissue uptake at 105 s (in vivo [2]): 241 ± 63 %ID/g; tissue uptake at 2.5 min (in vivo [2]): 241 ± 66 %ID/g; tissue uptake at 3.5 min (in vivo [2]): 240 ± 68 %ID/g; tissue uptake at 0.075 h (in vivo [2]): 241 ± 69 %ID/g; tissue uptake at 5.5 min (in vivo [2]): 240 ± 70 %ID/g; tissue uptake at 6.5 min (in vivo [2]): 240 ± 70 %ID/g; tissue uptake at 0.125 h (in vivo [2]): 240 ± 70 %ID/g; tissue uptake at 8.5 min (in vivo [2]): 239 ± 69 %ID/g; tissue uptake at 9.5 min (in vivo [2]): 238 ± 70 %ID/g; tissue uptake at 0.175 h (in vivo [2]): 238 ± 70 %ID/g; tissue uptake at 11.5 min (in vivo [2]): 236 ± 70 %ID/g; tissue uptake at 6 h (in vivo [2]): 49 ± 17 %ID/g; tissue uptake at 24 h (in vivo [2]): 23 ± 7 %ID/g; tissue uptake dose at 0.2 h (in vivo [2]): 85 ± 11 %ID; range of voxel radioactivities in tumor [3]: 0-500 %ID/g
